The values that follow are results of earlier work, collected in publication PMC12336664.

The series addresses FXa (Homo sapiens) (UniProt P00742).
Sequence of UniProt P00742 (P00742 41-179, chain 1 of 2): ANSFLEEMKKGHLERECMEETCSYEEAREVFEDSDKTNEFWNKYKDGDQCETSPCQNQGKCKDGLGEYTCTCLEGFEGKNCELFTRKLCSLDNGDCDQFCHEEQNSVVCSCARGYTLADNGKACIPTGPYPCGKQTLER
Sequence of UniProt P00742 (P00742 235-488, chain 2 of 2): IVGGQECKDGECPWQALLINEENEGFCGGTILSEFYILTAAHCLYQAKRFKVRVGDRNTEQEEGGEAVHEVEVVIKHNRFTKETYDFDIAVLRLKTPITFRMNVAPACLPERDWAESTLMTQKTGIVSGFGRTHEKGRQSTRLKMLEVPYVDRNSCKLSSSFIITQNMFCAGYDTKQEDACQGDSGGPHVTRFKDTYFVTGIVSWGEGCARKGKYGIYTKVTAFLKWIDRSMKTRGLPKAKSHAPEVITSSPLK

The Kd is the constant that tells how readily two partners part at equilibrium. As for TFPIα (from UniProt P10646), the equilibrium dissociation constant (Kd) is 0.02 nM.
